Experimental findings from PMC9931449 are described below.

Some targets named below: APE1 WT (Homo sapiens, UniProt P27695 1-318); APE1 C65S (Homo sapiens, UniProt P27695 1-318, C65S); APE1 C310S (Homo sapiens, UniProt P27695 1-318, C310S).
Common to all, as to assay: fluorescence anisotropy
A general note: Polarisation of emitted light reports the rotation of a fluorescent probe.

Sequence of APE1 C310S (P27695 whole entry C310S): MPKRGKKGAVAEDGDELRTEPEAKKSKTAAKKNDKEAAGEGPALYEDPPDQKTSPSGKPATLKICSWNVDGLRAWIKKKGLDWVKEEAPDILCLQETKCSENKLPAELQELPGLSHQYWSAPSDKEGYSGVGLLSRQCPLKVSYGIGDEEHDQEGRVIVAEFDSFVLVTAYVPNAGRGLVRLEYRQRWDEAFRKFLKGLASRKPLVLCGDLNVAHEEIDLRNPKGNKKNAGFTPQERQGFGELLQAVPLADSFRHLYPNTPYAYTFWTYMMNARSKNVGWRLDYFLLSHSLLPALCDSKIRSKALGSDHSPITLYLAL
Sequence of APE1 C65S (P27695 whole entry C65S): as the sequence (P27695 whole entry C310S) above, with C65S, S310C counted along it
Sequence of APE1 WT (P27695 whole entry): as the sequence (P27695 whole entry C310S) above, with S310C counted along it

B1: N3 WT duplex (dsDNA)
DNA 1: TTGGGCGGGGCCTGGGCGGGGCC
DNA 2: GGCCCCGCCCAGGCCCCGCCCAA
With B1, in the series with APE1 WT, the binding result is given as “no binding”.

B2: N3-5 G4 (structured_DNA)
DNA: TAGGGTGCTGTTTGGGCGGGGCCTGGGCGGGGCC
As for B2, the binding result in the series with APE1 C65S and in the series with APE1 C310S was “binds” in each case.

B3: N3-4 G4 (structured_DNA)
DNA: TTGGGCGGGGCCTGGGCGGGGCC
Regarding B3, the binding result in the series with APE1 C65S and in the series with APE1 C310S was “binds” in each case.
